Experimental data published in article PMC10218266, “Unveiling CD59-Antibody Interactions to Design Paratope-Mimicking Peptides for Complement Modulation” (International Journal of Molecular Sciences, 2023).
Starred links: 1 amine or outer side, 2 acyl side, 3 side chain; linkers in the order of their positions; H or OH if unused. Positions of bridges follow the written chain, without caps; N, C: chain ends. Residues, ends and D or L forms follow the SMILES beside them. TBMB = c1c(C[*:1])cc(C[*:3])cc1C[*:2]

T1: recombinant human CD59 (Homo sapiens, UniProt P13987)
T1 construct: purchased Abcam ab134887
T1 sequence (P13987 26-128): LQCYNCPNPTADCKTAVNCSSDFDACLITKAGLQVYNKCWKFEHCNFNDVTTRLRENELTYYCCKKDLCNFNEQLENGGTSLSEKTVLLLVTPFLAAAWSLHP

T2: human recombinant CD59 protein (human, UniProt P13987 26-99)
T2 construct: CD59, human, recombinant commercial product (Abcam ab134887); also called commercial CD59 (ab134887); source: bought: Abcam (ab134887), recombinant
T2 sequence: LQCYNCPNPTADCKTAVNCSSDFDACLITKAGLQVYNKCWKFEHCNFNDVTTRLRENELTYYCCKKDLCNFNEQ


Experiments:
recombinant human CD59 [1] = molecular target: T1, recombinant human CD59; assay: Surface Plasmon Resonance (SPR) direct binding assay; conditions: for kon: CD59 on CM5 chip, HBS-EP, 25 °C, 1:1 fit, average over tested peptide concentrations, read-out: ka
Method: (§1) The bicyclic peptides were tested for their ability to bind to recombinant human CD59. Direct binding assays were performed both using Surface Plasmon Resonance (SPR) and Biolayer Interferometry (BLI) label-free techniques (Figure 5). In both cases, after immobilisation of the protein on the sensor chips, the peptides were tested at increasing concentrations between 2.5 µM and 50 µM. […] Binding experiments were next repeated using BLI to confirm the recognition.
Assessment of binding kinetics and affinity between pm59 peptides and CD59 was performed at 25 °C using standard protocols on a BIACORE 3000 system (GE Healthcare, Little Chalfont, UK) with a research-grade CM5 (Carboxymethyl dextran) sensor chip and using commercial CD59 (ab134887) obtained from Abcam (Cambridge, UK). After chip preparation according to the manufacturer’s guidelines and surface activation, CD59 was immobilised onto the chip at a density of 4000 RU (0.5 mg/mL in 10 μL/min) on a NaAc buffer at pH 4.5. Bovine serum albumin (BSA) was immobilised on flow cell 2 to serve as reference. All surfaces were blocked with a 7′ injection of 1 M ethanolamine at pH 8.5.
The bicyclic acetylated CD59-targeting peptides were diluted in HBS-EP buffer (GE Healthcare, Little Chalfont, UK) and injected over the flow cells at a flow rate of 30 μL/min and concentrations ranging from 1 μM to 30 μM. Association of the complexes was allowed for 120 s and dissociation for 240 s. Regeneration of the surfaces was obtained by the sequential injection of 5 mM NaOH pulses (10 μL/min) until the established baseline was reached. Kinetics and binding data were fitted to a 1:1 stoichiometric interaction model using the global data analysis of the BIAevaluation software (GE Healthcare, Little Chalfont, UK) and Graphpad (Graphpad software, San Diego, CA, USA).

recombinant human CD59 [2] = molecular target: T1, recombinant human CD59; assay: Biolayer Interferometry (BLI) direct binding assay; conditions: for kon / koff: CD59 on AR2G sensor, Kinetic Buffer, 1:1 fit; for kon: read-out: ka; for koff: read-out: kdis
Method: as §1
The BLI technique was used to assess the binding of the peptides towards the human recombinant CD59 protein (Abcam code ab134887). The protein was efficiently immobilized at 15 μg/mL in 10 mM NaAc at pH 4.5 on a AR2G sensor chip (Sartorius) according to the manufacturer’s instructions. An unmodified sensor chip was used as blank. The peptides were tested at increasing concentrations from 5 µM to 50 µM dissolved in Kinetic Buffer (PBS containing 0.02% Tween20, 0.1% BSA, 0.05% sodium azide) and using the same running buffer. All analyses were carried out at 25 °C; 10 mM NaOH was used to regenerate the chip surface. All mathematical manipulations were performed using the Octet Analysis Studio 12.2 software from Sartorius. Data were fitted assuming a 1:1 Langmuir binding model determining the KDs by the global analysis mode. Binding curves were exported and charted using GraphPad software, vers. 5.

[3] = molecular target: T2, human recombinant CD59 protein; assay: SPR; CD59 immobilised on a CM5 chip (4000 RU, NaAc buffer pH 4.5), BSA on the reference flow cell; peptides in HBS-EP injected at 30 μL/min, 25 °C, BIACORE 3000; 1:1 Langmuir model; conditions: both partners purified
[4] = molecular target: T2, human recombinant CD59 protein; assay: BLI; CD59 immobilised at 15 μg/mL in 10 mM NaAc pH 4.5 on an AR2G sensor; peptides 5 µM to 50 µM in Kinetic Buffer (PBS, 0.02% Tween20, 0.1% BSA, 0.05% sodium azide), 25 °C; 1:1 Langmuir model; conditions: both partners purified
[5] = 25 °C, average over tested peptide concentrations

Row | kon (recombinant human CD59 [1]) [M⁻¹ s⁻¹] | kon (recombinant human CD59 [2]; [5]) [M⁻¹ s⁻¹] | koff (recombinant human CD59 [2]; [5]) [s⁻¹] | KD at 5 μM [3] [µM] | KD at 10 μM [3] [µM] | KD at 20 μM [3] [µM] | KD at 30 μM [3] [µM] | Kd [3] [µM] | ka at 5 μM [3] [M⁻¹ s⁻¹] | ka at 10 μM [3] [M⁻¹ s⁻¹] | ka at 20 μM [3] [M⁻¹ s⁻¹] | ka at 30 μM [3] [M⁻¹ s⁻¹] | kd at 5 μM [3] [s⁻¹] | kd at 10 μM [3] [s⁻¹] | kd at 20 μM [3] [s⁻¹] | kd at 30 μM [3] [s⁻¹] | koff [3] [s⁻¹] | KD at 10 μM [4] [µM] | KD at 20 μM [4] [µM] | KD at 30 μM [4] [µM] | Molecule | further results
1 | 2930 | 463 | 0.00268 |  |  |  |  |  |  |  |  |  |  |  |  |  |  |  |  |  | CC(=O)N[C@H]1CSCc2cc3cc(c2)CSC[C@H](NC(=O)[C@H](CC(C)C)NC(=O)[C@H](Cc2ccc(O)cc2)NC(=O)[C@H](CCCCN)NC(=O)[C@H](CC(N)=O)NC1=O)C(=O)N[C@@H](CCC(N)=O)C(=O)N[C@@H](Cc1ccc(O)cc1)C(=O)N[C@@H](Cc1ccc(O)cc1)C(=O)N[C@@H](CO)C(=O)N[C@@H]([C@@H](C)O)C(=O)N[C@H](C(N)=O)CSC3 [pm59sh] (Ac-CNKYLCQYYSTC-NH2; linker 1-6-12 via TBMB) | 
2 |  |  |  |  |  |  |  |  |  |  |  |  |  |  |  |  |  |  |  |  | Ac-CNNKYLACQQYYSTPC-NH2 (also: bicyclic or more (positions not given here)) [pm59ln, long bicyclic paratope-mimicking peptide of MB59 VL CDR1/CDR3, three cysteines linked by TBMB, N-acetylated, C-amidated] | binding to CD59 (in words) (recombinant human CD59 [1]; immobilised CD59, peptide at increasing concentrations between 2.5 µM and 50 µM (Figure 5E)): No significant binding; binding to CD59 (in words) (recombinant human CD59 [2]; immobilised CD59, peptide at increasing concentrations between 2.5 µM and 50 µM (Figure 5F)): No significant binding
3 | 2930 | 919 | 0.00333 |  |  |  |  |  |  |  |  |  |  |  |  |  |  |  |  |  | CC(=O)N[C@H]1CSCc2cc3cc(c2)CSC[C@H](NC(=O)[C@H](CC(C)C)NC(=O)[C@H](Cc2ccc(O)cc2)NC(=O)[C@H](CCCCN)NC(=O)[C@H](CC(N)=O)NC(=O)[C@H](CC(N)=O)NC1=O)C(=O)N[C@@H](CCC(N)=O)C(=O)N[C@@H](Cc1ccc(O)cc1)C(=O)N[C@@H](Cc1ccc(O)cc1)C(=O)N[C@@H](CO)C(=O)N[C@@H]([C@@H](C)O)C(=O)N1CCC[C@H]1C(=O)N[C@H](C(N)=O)CSC3 [pm59md] (Ac-CNNKYLCQYYSTPC-NH2; linker 1-7-14 via TBMB) | Kd (recombinant human CD59 [2]; OCTET R8, CD59 immobilised on AR2G sensor, Kinetic Buffer (PBS, 0.02% Tween20, 0.1% BSA, 0.05% sodium azide), 25 °C, 1:1 Langmuir fit, average over tested peptide concentrations): 4.39 µM
4 |  |  |  | 0.902 | 1.09 | 3.1 | 4.39 | 3.13 | 7080 | 4830 | 2290 | 1270 | 0.00638 | 0.00526 | 0.0071 | 0.00627 | 0.00582 | 1.23 | 4.12 | 6.09 | Ac-CNNKYLCQYYSTPC-NH2 (linker 1-7-14 via TBMB; SMILES CC(=O)N[C@H]1CSCc2cc3cc(c2)CSC[C@H](NC(=O)[C@H](CC(C)C)NC(=O)[C@H](Cc2ccc(O)cc2)NC(=O)[C@H](CCCCN)NC(=O)[C@H](CC(N)=O)NC(=O)[C@H](CC(N)=O)NC1=O)C(=O)N[C@@H](CCC(N)=O)C(=O)N[C@@H](Cc1ccc(O)cc1)C(=O)N[C@@H](Cc1ccc(O)cc1)C(=O)N[C@@H](CO)C(=O)N[C@@H]([C@@H](C)O)C(=O)N1CCC[C@H]1C(=O)N[C@H](C(N)=O)CSC3, designed from key residues of the CDR1 and CDR3 loops of the VL chain of the scFv MB59, flanking residues changed to cysteines; also called medium version of pm59; source: synthetic peptide (Fmoc solid phase, bi-cyclised with TBMB, RP-HPLC purified)) [pm59md, bicyclic paratope-mimicking peptide (medium version)] | KD at 2.5 μM [3]: 1.38 µM; KD at 40 μM [3]: 3.88 µM; KD at 50 μM [3]: 4.9 µM; ka at 2.5 μM [3]: 5960 M⁻¹ s⁻¹; ka at 40 μM [3]: 1320 M⁻¹ s⁻¹; ka at 50 μM [3]: 980 M⁻¹ s⁻¹; kd at 2.5 μM [3]: 0.00814 s⁻¹; kd at 40 μM [3]: 0.00511 s⁻¹; kd at 50 μM [3]: 0.0048 s⁻¹; KD at 25 μM [4]: 6.52 µM; KD at 40 μM [4]: 8.38 µM; ka at 5 μM [4]: 963 M⁻¹ s⁻¹; ka at 10 μM [4]: 1560 M⁻¹ s⁻¹; ka at 20 μM [4]: 889 M⁻¹ s⁻¹; ka at 25 μM [4]: 783 M⁻¹ s⁻¹; ka at 30 μM [4]: 750 M⁻¹ s⁻¹; ka at 40 μM [4]: 564 M⁻¹ s⁻¹
5 |  |  |  | 0.469 | 1.64 | 2.61 | 4.46 | 2.42 | 7260 | 3010 | 1560 | 1230 | 0.0034 | 0.00493 | 0.00408 | 0.00548 | 0.00469 | 4.98 | 9.92 | 8.45 | Ac-CNKYLCQYYSTC-NH2 (linker 1-6-12 via TBMB; SMILES CC(=O)N[C@H]1CSCc2cc3cc(c2)CSC[C@H](NC(=O)[C@H](CC(C)C)NC(=O)[C@H](Cc2ccc(O)cc2)NC(=O)[C@H](CCCCN)NC(=O)[C@H](CC(N)=O)NC1=O)C(=O)N[C@@H](CCC(N)=O)C(=O)N[C@@H](Cc1ccc(O)cc1)C(=O)N[C@@H](Cc1ccc(O)cc1)C(=O)N[C@@H](CO)C(=O)N[C@@H]([C@@H](C)O)C(=O)N[C@H](C(N)=O)CSC3, designed from key residues of the CDR1 and CDR3 loops of the VL chain of the scFv MB59, flanking residues changed to cysteines; also called short version of pm59; source: synthetic peptide (Fmoc solid phase, bi-cyclised with TBMB, RP-HPLC purified)) [pm59sh, bicyclic paratope-mimicking peptide (short version)] | KD at 7.5 μM [3]: 1.24 µM; KD at 15 μM [3]: 2.39 µM; KD at 25 μM [3]: 4.13 µM; ka at 7.5 μM [3]: 4210 M⁻¹ s⁻¹; ka at 15 μM [3]: 2050 M⁻¹ s⁻¹; ka at 25 μM [3]: 1160 M⁻¹ s⁻¹; kd at 7.5 μM [3]: 0.00523 s⁻¹; kd at 15 μM [3]: 0.0049 s⁻¹; kd at 25 μM [3]: 0.00481 s⁻¹; KD at 5 μM [4]: 0.865 µM; KD at 40 μM [4]: 15 µM; KD at 50 μM [4]: 15.9 µM; Kd [4]: 9.18 µM; ka at 5 μM [4]: 1130 M⁻¹ s⁻¹; ka at 10 μM [4]: 524 M⁻¹ s⁻¹; ka at 20 μM [4]: 294 M⁻¹ s⁻¹; ka at 30 μM [4]: 451 M⁻¹ s⁻¹; ka at 40 μM [4]: 197 M⁻¹ s⁻¹; ka at 50 μM [4]: 178 M⁻¹ s⁻¹
